{
  "source": "patent US20130251703A1",
  "about": "(Novartis, published 2013)",
  "binders": {"B1": {"name": "MOR12604 (antibody, V domains shown)", "VH": "QVQLVQSGAEVKKPGSSVKVSCKASGGTFSSYAISWVRQAPGQGLEWMGLIIPRYGKARYAQKFQGRVTITADESTSTAYMELSSLRSEDTAVYYCARNWPYYYMDFWGQGTLVTVSS", "VL": "DIVLTQSPATLSLSPGERATLSCRASQNIVFNLAWYQQKPGQAPRLLIYDASNRATGVPARFSGSGSGTDFTLTISSLEPEDFAVYYCQQKKSMPLTFGQGTKVEIKR", "notes": "Tested as IgG"}},
  "key": {"[1]": {"target": "T1, human HER3 endogenously expressed on human cancer cells (SK-Br-3, BT-474, MCF7) (human, UniProt P21860 20-1342)", "assay": "cell-based or functional assay"}, "[2]": {"target": "T1, human HER3 endogenously expressed on …", "assay": "cell-based or functional assay", "remark": "listed apart in the source"}, "[3]": {"target": "T2, Hu HER3: CD33-[Human HER3, residues 20-640]-TAG (human, UniProt P21860 20-640)", "T2 construct": "also called hu HER3-Tag; HER3-Tag; not shown: C-terminal TAG (e.g. FLAG TAG)", "assay": "solution equilibrium titration (SET), IgG, ECL read-out"}, "[4]": {"target": "T3, Cyno HER3: CD33-[Cyno HER3, residues 20-643]-TAG (cynomolgus monkey, UniProt G7PIG5 20-643)", "T3 construct": "also called cy HER3-Tag; not shown: C-terminal TAG (e.g. FLAG TAG)", "assay": "solution equilibrium titration (SET), IgG, ECL read-out"}, "[5]": {"target": "T4, Mu HER3: CD33-[Murine HER3, residues 20-643]-TAG (mouse, UniProt Q61526 20-643)", "T4 construct": "also called mu HER3-Tag; not shown: C-terminal TAG (e.g. FLAG TAG)", "assay": "solution equilibrium titration (SET), IgG, ECL read-out"}, "[6]": {"target": "T5, Rat HER3: CD33-[Rat HER3, residues 20-643]-TAG (rat, UniProt Q62799 20-643)", "T5 construct": "also called ra HER3-Tag; not shown: C-terminal TAG (e.g. FLAG TAG)", "assay": "solution equilibrium titration (SET), IgG, ECL read-out"}, "[7]": {"target": "T6, HER3 D1-2: CD33-[Human HER3, residues 20-329]-TAG (human, UniProt P21860 20-329)", "T6 construct": "also called D1-2-Tag; domains 1 and 2; not shown: C-terminal TAG (e.g. FLAG TAG)", "assay": "HER3 domain binding ELISA: recombinant protein coated on the plate, antibody titrated; the y axis reads 'Fluorescence Units'", "procedure": "(§1) All wells were then washed with PBS/0.1% Tween-20, blocked with PBS/1% BSA/0.1% Tween-20 and washed with PBS/0.1% Tween-20. Anti-HER3 antibodies were added to the relevant wells up to a final concentration of 10 μg/mL and incubated at room temperature. Plates were washed with PBS/0.1% Tween-20 prior to the addition of the appropriate peroxidase linked detection antibody diluted 1/10000 in PBS/1% BSA/0.1% Tween-20. The detection antibodies used were goat anti-mouse (Pierce, 31432), rabbit anti-goat (Pierce, 31402) and goat anti-human (Pierce, 31412). Plates were incubated at room temperature before washing with PBS/0.1% Tween-20. 100 μl TMB (3,3′,5,5′ tetramethyl benzidine) substrate solution (BioFx) was added to all wells before stopping the reaction with 50 μl 12.5% H₂SO₄. […] Where appropriate, dose response curves were analyzed using Graphpad Prism."}, "[8]": {"target": "T7, HER3 D2: CD33-[Human HER3, residues 185-329]-TAG (human, UniProt P21860 185-329)", "T7 construct": "also called D2-Tag; domain 2; not shown: C-terminal TAG (e.g. FLAG TAG)", "assay": "HER3 domain binding ELISA: recombinant protein coated on the plate, antibody titrated; the y axis reads 'Fluorescence Units'", "procedure": "as §1"}, "[9]": {"target": "T1, human HER3 endogenously expressed on …", "assay": "cell-based or functional assay", "remark": "listed apart in the source"}},
  "data": [
    {"binder": "B1", "values": [
      {"measurement": "MCF7 proliferation % inhibition", "setting": "[1]", "value": 39, "unit": "%"},
      {"measurement": "MCF7 proliferation IC50", "setting": "[1]", "value": 0.073, "unit": "nM"},
      {"measurement": "SK-Br-3 proliferation % inhibition", "setting": "[1]", "value": 42, "unit": "%"},
      {"measurement": "SK-Br-3 proliferation IC50", "setting": "[1]", "value": 0.015, "unit": "nM"},
      {"measurement": "BT-474 pAkt % inhibition", "setting": "[2]", "value": 70, "unit": "%"},
      {"measurement": "BT-474 pAkt IC50", "setting": "[2]", "value": 225, "unit": "pM"},
      {"measurement": "MCF7 pAkt % inhibition", "setting": "[2]", "value": 74, "unit": "%"},
      {"measurement": "MCF7 pAkt IC50", "setting": "[2]", "value": 235, "unit": "pM"},
      {"measurement": "SK-Br-3 pAkt % inhibition", "setting": "[2]", "value": 85, "unit": "%"},
      {"measurement": "SK-Br-3 pAkt IC50", "setting": "[2]", "value": 17, "unit": "pM"},
      {"measurement": "Kd", "setting": "[3]", "value": 1.1, "unit": "nM"},
      {"measurement": "Kd", "setting": "[4]", "value": 2.2, "unit": "nM"},
      {"measurement": "Kd", "setting": "[5]", "value": 1.9, "unit": "nM"},
      {"measurement": "Kd", "setting": "[6]", "value": 5.2, "unit": "nM"},
      {"measurement": "binding result", "setting": "[7]", "value": "no binding (tested: 10 µg/ml)"},
      {"measurement": "binding result", "setting": "[8]", "value": "no binding (tested: 10 µg/ml)"},
      {"measurement": "BT474 pHER3 % inhibition", "setting": "[9]", "value": 62, "unit": "%"},
      {"measurement": "BT474 pHER3 IC50", "setting": "[9]", "value": 142, "unit": "pM"},
      {"measurement": "MCF7 pHER3 % inhibition", "setting": "[9]", "value": 79, "unit": "%"},
      {"measurement": "MCF7 pHER3 IC50", "setting": "[9]", "value": 57, "unit": "pM"},
      {"measurement": "SK-Br-3 pHER3 % inhibition", "setting": "[9]", "value": 71, "unit": "%"},
      {"measurement": "SK-Br-3 pHER3 IC50", "setting": "[9]", "value": 29, "unit": "pM"}
    ]}
  ]
}
